# Measured values from US20220220224A1 (Hoffmann-La Roche, published 2022).
# Like-named read-outs stand apart in the source and are kept apart here.
# B1: 16D5 W96Y/D52E TCB (2+1 inverted, common light chain) (bispecific antibody)
# heavy 1: not shown
# heavy 2: not shown
# light: QAVVTQEPSLTVSPGGTVTLTCGSSTGAVTTSNYANWVQEKPGQAFRGLIGGTNKRAPGTPARFSGSLLGGKAALTLSGAQPEDEAEYYCALWYSNLWVFGGGTKLTVLGQPKAAPSVTLFPPSSEELQANKATLVCLISDFYPGAVTVAWKADSSPVKAGVETTTPSKQSNNKYAASSYLSLTPEQWKSHRSYSCQVTHEGSTVEKTVAPTECS
# B2: 16D5 IgG variant W98Y/wt (HC/LC) (antibody, V domains shown)
# VH: not shown
# VL: QAVVTQEPSLTVSPGGTVTLTCGSSTGAVTTSNYANWVQEKPGQAFRGLIGGTNKRAPGTPARFSGSLLGGKAALTLSGAQPEDEAEYYCALWYSNLWVFGGGTKLTVL
# notes: IgG
# Columns and labels:
# [1] = molecular target: T1, recombinant biotinylated monomeric Fc fusion of human Folate Receptor 1 (huFolR1 ECD-AcTev-Fcknob-Avi tag … (human, UniProt P0DOX5 223-449 = IgG part, biotin on the C-terminal Avi tag)); assay: SPR Biacore, avidity (bivalent, apparent KD), antigen-Fc on SA chip
# T1 construct: also called huFolR1-Fc; human FolR1-Fc
# [2] = molecular target: T2, recombinant biotinylated monomeric Fc fusion of cynomolgus Folate Receptor 1 (cy FolR1 ECD-AcTev-Fcknob-Avi … (cynomolgus, UniProt P0DOX5 223-449 = IgG part, biotin on the C-terminal Avi tag)); assay: as above
# T2 construct: also called cyFolR1-Fc; cyno FolR1
# [3] = molecular target: T3, human FolR1 expressed on cells (HeLa, SKOV3, HT-29, transfected HEK cells) (human, UniProt P15328 25-234); assay: cell-based or functional assay
# [4] = molecular target: T3, human FolR1 expressed on cells (HeLa, …); assay: cell-based or functional assay; remark: listed apart in the source
# [5] = molecular target: T1, recombinant biotinylated monomeric Fc …; assay: SPR Biacore, affinity (monovalent), antibody captured via anti-Fab, steady state analysis
# Procedure: (§1) All SPR experiments were performed on a Biacore T200 at 25° C. with HBS-EP as running buffer (0.01 M HEPES pH 7.4, 0.15 M NaCl, 3 mM EDTA, 0.005% Surfactant P20, Biacore, GE Healthcare). The molecules used for affinity and avidity determination are described in Table 45.
# (§2) For affinity measurement, direct coupling of around 12000 resonance units (RU) of the anti-human Fab specific antibody (Fab capture kit, GE Healthcare) was performed on a CM5 chip at pH 5.0 using the standard amine coupling kit (GE Healthcare). Anti-FolR1 T cell bispecifics were captured at 20 nM with a flow rate of 10 μl/min for 40 sec, the reference flow cell was left without capture. […] The dissociation phase was monitored for 300 s and triggered by switching from the sample solution to HBS-EP. The chip surface was regenerated after every cycle using a double injection of 60 sec 10 mM Glycine-HCl pH 2.1. Bulk refractive index differences were corrected for by subtracting the response obtained on the reference flow cell 1. The affinity constants for the interactions were derived from the rate constants by fitting to a 1:1 Langmuir binding using the Bia Evaluation software (GE Healthcare). For low affinity kinetics with association and dissociation phases too fast to be fitted by the 1:1 Langmuir binding model, the steady state analysis model was applied using the Bia Evaluation software (GE Healthcare). The steady state analysis gives the KD of the binding reaction at equilibrium.
# [6] = molecular target: T2, recombinant biotinylated monomeric Fc …; assay: as above
# Procedure: as §1, §2
# [7] = molecular target: T1, recombinant biotinylated monomeric Fc …; assay: SPR Biacore, affinity (monovalent)
# [8] = molecular target: T4, recombinant biotinylated monomeric Fc fusion of human Folate Receptor 2 (hu FolR2 ECD-AcTev-Fcknob-Avi tag … (human, UniProt P0DOX5 223-449 = IgG part, biotin on the C-terminal Avi tag)); assay: SPR Biacore, single injection on immobilized antigen-Fc
# T4 construct: also called FolR2-Fc
# Procedure: as §1
# (§3) First the anti-FolR1 TCBs were analyzed by single injections (Table 46) to characterize their crossreactivity (to human, murine and cyno FolR1) and specificity (to human FolR1, human FolR2, human FolR3). Recombinant biotinylated monomeric Fc fusions of human, cynomolgus and murine Folate Receptor 1 (FolR1-Fc) or human Folate Receptor 2 and 3 (FolR2-Fc, FolR3-Fc) were directly coupled on a SA chip using the standard coupling instruction (Biacore, Freiburg/Germany). The immobilization level was about 300-400 RU. The TCBs were injected for 60 seconds at a concentration of 500 nM.
# [9] = molecular target: T5, recombinant biotinylated monomeric Fc fusion of murine Folate Receptor 1 (mu FolR1 ECD-AcTev-Fcknob-Avitag … (murine, UniProt P0DOX5 223-449 = IgG part, biotin on the C-terminal Avi tag)); assay: as above
# T5 construct: also called muFolR1-Fc; murine FolR1
# Procedure: as §1, §3
# [10] = molecular target: T6, recombinant biotinylated monomeric Fc fusion of human Folate Receptor 3 (hu FolR3 ECD-AcTev-Fcknob-Avi tag … (human, UniProt P0DOX5 223-449 = IgG part, biotin on the C-terminal Avi tag)); assay: as above
# T6 construct: also called FolR3-Fc
# Procedure: as §1, §3
# [11] = molecular target: T1, recombinant biotinylated monomeric Fc …; assay: SPR Biacore, avidity (bivalent)
# [12] = molecular target: T1, recombinant biotinylated monomeric Fc …; assay: SPR Biacore, affinity (monovalent), antibody captured via anti-Fab, steady state
# Procedure: The affinity of the interaction between the anti-FolR1 IgGs or the T cell bispecifics and the recombinant folate receptors was determined as described below (Table 42).
# For affinity measurement, direct coupling of around 10000 resonance units (RU) of the anti-human Fab specific antibody (Fab capture kit, GE Healthcare) was performed on a CM5 chip at pH 5.0 using the standard amine coupling kit (GE Healthcare). Anti-FolR1 IgGs or T cell bispecifics were captured at 200 nM with a flow rate of 10 ul/min for 40 sec, the reference flow cell was left without capture. Dilution series (12.35 to 3000 nM) of human Folate Receptor 1 Fc fusion were passed on all flow cells at 30 μl/min for 240 sec to record the association phase. The dissociation phase was monitored for 300 s and triggered by switching from the sample solution to HBS-EP. The chip surface was regenerated after every cycle using a double injection of 60 sec 10 mM Glycine-HCl pH 1.5. Bulk refractive index differences were corrected for by subtracting the response obtained on the reference flow cell 1. […]
# [13] = molecular target: T1, recombinant biotinylated monomeric Fc …; assay: SPR Biacore, avidity (bivalent, apparent KD), antigen-Fc on SA chip; remark: listed apart in the source
# Procedure: (§4) The avidity of the interaction between the anti-FolR1 IgGs or T cell bispecifics and the recombinant folate receptors was determined as described below (Table 41).
# (§5) Recombinant biotinylated monomeric Fc fusions of human, cynomolgus and murine Folate Receptor 1 (FolR1-Fc) were directly coupled on a SA chip using the standard coupling instruction (Biacore, Freiburg/Germany). The immobilization level was about 300. […] The dissociation was monitored for 240 or 600 seconds. Bulk refractive index differences were corrected for by subtracting the response obtained on reference flow cell immobilized with recombinant biotinylated murine IL2 receptor Fc fusion. The binding curves resulting from the bivalent binding of the IgG or T cell bispecifics were approximated to a 1:1 Langmuir binding (even though it is a 1:2 binding) and fitted with that model to get an apparent KD representing the avidity of the bivalent binding. The apparent avidity constants for the interactions were derived from the rate constants of the fitting using the Bia Evaluation software (GE Healthcare). For low affinity kinetics with association and dissociation phases too fast to be fitted by the 1:1 Langmuir binding model, the steady state analysis model was applied using the Bia Evaluation software (GE Healthcare). The steady state analysis gives the KD of the binding reaction at equilibrium.
# [14] = molecular target: T2, recombinant biotinylated monomeric Fc …; assay: as above; remark: listed apart in the source
# Procedure: as §4, §5
# T3 sequence (P15328 25-234): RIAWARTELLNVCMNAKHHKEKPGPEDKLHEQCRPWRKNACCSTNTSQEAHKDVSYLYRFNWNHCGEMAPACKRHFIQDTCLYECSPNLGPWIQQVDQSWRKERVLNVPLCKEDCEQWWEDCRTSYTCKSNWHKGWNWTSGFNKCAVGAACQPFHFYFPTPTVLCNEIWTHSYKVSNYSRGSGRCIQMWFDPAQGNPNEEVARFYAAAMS
binder,measurement,setting,value
B1,Kd,[1],10 nM
same,koff,[1],0.0014 s⁻¹
same,kon,[1],124000 M⁻¹ s⁻¹
same,Kd,[2],30 nM
same,koff,[2],0.0141 s⁻¹
same,kon,[2],517000 M⁻¹ s⁻¹
same,"EC50 of T-cell killing of Hela, 24 h",[3],0.0013 nM
same,"EC50 of T-cell killing of SKov-3, 24 h",[3],0.235 nM
same,"EC50 of T-cell killing of HT-29, 48 h",[4],0.399 nM
same,"EC50 of T-cell killing of Hela, 48 h",[4],0.0009 nM
same,"EC50 of T-cell killing of SKov-3, 48 h",[4],0.093 nM
same,Kd,[5],1400 nM
same,Kd,[6],5600 nM
same,fold lower affinity than 16D5 WT (57 nM),[7],24.5 fold
same,binding result,[8],no binding (tested: 500 nM)
same,binding result,[9],no binding (tested: 500 nM)
same,binding result,[10],no binding (tested: 500 nM)
same,fold lower avidity than 16D5 WT (3 nM),[11],3 fold
B2,Kd,[12],5400 nM
same,Kd,[13],240 nM
same,koff,[13],0.0328 s⁻¹
same,kon,[13],136000 M⁻¹ s⁻¹
same,Kd,[14],200 nM
same,koff,[14],0.0361 s⁻¹
same,kon,[14],171000 M⁻¹ s⁻¹
